Experimental data reported in the DeepSol protein solubility set.

Experiment: soluble on expression in E. coli; label from the status in PepcDB or PDB records

Sequence | soluble on expression in E. coli
MSELRKLELERKKQKLAELKSQRKREEDARVQNLLRSTNENGTTQNGTSRQTLSSNEVEDILRQVGISTEPTVREESPAPPPGSHSDNHVDPSASHPRISNLLSVDLEFSSVQTACTDNKDSAIYSKGTQTDDERISVGEFSLGSQEFDYDDDMIMPMDHGQFRGRAHSHDQDSPLPYNEEIAKLLGQTKQGDKGLTRQETEEKKTQTVQIVPPLSDEEKYRLTLDPEFLDSFNRSCKVISRALNEEIDICINYTKDPYEKAIASDDLLHLAQVYQDETWTAKRLVTGMAFSEHYPDLLAVSYGPCDIPNEPPGVIVVWNTKSKRMTAEFIVYCQSEIQSVAFARFHAHLLLAGCESGQICVWDNRLTSRKLPINRSPLTTQAHTYTVSCLAVVGTKNAHNFVSLSRDGRICSWNVDNLTQPVDGKELMTKEGKAASATRMSFPIGEMQTFVVGTDTGEILAASRNGADPAVIKTDVCYKGHSGTLTGIEFHRASGVVDFSHLFISSSHDWTVKLWSTKDANLKFSFESHPDLVLDVAWSPVHPAVFASIDADGNIFVWNLNEDVEGPVARLRAGAEGESVYMNRLIWSPDGKHVFVGDDEGRVHMYDVRESLYVLKSEEWNRFARVLSDMKQSNEEAENYNM | not soluble
MSELSQLSPQPLWDIFAKICSIPHPSYHEEQLAEYIVGWAKEKGFHVERDQVGNILIRQPATAGMENRKPVVLQAHLDMVPQKNNDTVHDFTKDPIQPYIDGEWVKARGTTLGADNGIGMASALAVLADENVVHGPLEVLLTMTEEAGMDGAFGLQSNWLQADILINTDSEEEGEIYMGCAGGIDFTSNLHLDREAVPAGFETFKLTLKGLKGGHSGGEIHVGLGNANKLLVRFLAGHAEELDLRLIDFNGGTLRNAIPREAFATIAVAADKVDALKSLVNTYQEILKNELAEKEKNLALLLDSVANDKAALIAKSRDTFIRLLNATPNGVIRNSDVAKGVVETSLNVGVVTMTDNNVEIHCLIRSLIDSGKDYVVSMLDSLGKLAGAKTEAKGAYPGWQPDANSPVMHLVRETYQRLFNKTPNIQIIHAGLECGLFKKPYPEMDMVSIGPTITGPHSPDEQVHIESVGHYWTLLTELLKEIPAK | not soluble
MSEMNAVYNVKQYILNLIMQNKLEYGDQLPSNLSIARELNVKTDDVYEAIQALITEQVIKDNFEEGTSVKSLPPFFYPLNELISIGQMIKNAGFECGTEYLNFDEQPATMLDANLLSVEEGYPVTIIERLRTADGEPVVYCLDKIAKKELTCTEYQMSNGSILSAIKEQSNHNICYADTEIEAVNYEPRISEVLNASPHEGLILLKITHYNELDEPILYSLNYMKNSLVQFKITRKI | not soluble
MSEQDATLDEFVEEGESESTDSANIDPNTLDQEQFGPFTLSTPGEWTAKRLGDIKQLITRGKQPTYDDDGVPVINQECIYWDGWHFENLRYLEEDVAEGWKEKYFPESGDVIVNSTGQGTLGRAQVYPGDQRRAIDSHVTLLRTDEQLCPHFHRYFFESHLGQALLYSMCVNGSTGQIELSKTRLDLLPTPLPPLEEQRKIASVLYNVDQAIQKTEAVIEKIERLKQGLLDDLFTKGLSESNSLRPSPEDHPGLYKKERRQTIPSEWNVESLQNLCVENITYGIVQPGPHVEDGVPYINTEDMTDGDIPTEGLSRTSPEIAEKYSRSQIHAEELVVTIRATIGAVDQVPPELEGANLTRGTARVVPGDKVDNTFLLWAIRSNNFQSELDARVKGTTFDEINLDQLGKIPVPHPDIDEQDRIVDELSTIEERMENEESYLEQLKRLKQGLMQDLLSGEVRTTDVDIPVLDAVAQHG | soluble
MSFIKTFSGKHFYYDKINKDDIVINDIAVSLSNICRFAGHLSHFYSVAQHAVLCSQLVPQEFAFEALMHDATEAYCQDIPAPLKRLLPDYKRMEEKIDAVIREKYGLPPVMSTPVKYADLIMLATERRDLGLDDGSFWPVLEGIPATEMFNVIPLAPGHAYGMFMERFNDLSELRKCA | soluble
MSFNRISAAEAASLIKHGYNIGLSGFTPAGTAKAVTAELAKIAEAEHAKGNPFQVGIFTGASTGESCDGVMSRAKAIRYRAPYTTNSDFRKAVNNGEIAYNDIHLSQMAQEVRYGFMGKVNVAIIEACEVTPDGKIYLTAAGGISPTICRLADQIIVELNAAHSKSCMGLHDVYEPLDPPYRREIPIYKPSDRIGLPYIQVDPKKIVGVVETNWPDEARSFADADPLTDKIGQNVADFLAADMKRGIIPSTFLPLQSGVGNIANAVLGALGRDKTIPAFEMYTEVIQNSVIGLIREGRIKFGSACSLTVTNDCLEGIYNDMDFFRDKLVLRPSEISNNPEVVRRLGIISINTAIEVDLYGNVNSTHIGGTKMMNGIGGSGDFTRNAYISIFTCPSVAKEGKISAIVPMVSHLDHSEHSVNIIITEQGVADLRGKSPKERAQAIIENCAHPDYKQLLWDYLKLAGGRAQTPHAIQAALGMHAELAKSGDMKNTNWAEYARLEHHHHHH | not soluble
MSFTEDQEKIALEILSKDKHEFYEILKVDRKATDSEIKKAYRKLAIKLHPDKNSHPKAGEAFKVINRAFEVLSNEEKRSIYDRIGRDPDDRQMPSRGAASGFRGSAGGSPMGGGFEDMFFNSRFGGQRAGPPEDIFDFLFNAGGSPFGASPFGPSASTFSFGGPGGFRVYTNNRGGSPFMRQQPRSRQQQQQAEENAVNSQLKN | not soluble
MSGALKENSGKPSEVEYTHFKDLQALEMERGRLYETIVVTWDDSMVGNAAPIGVLCTGDDTVTLYLYQGTRTVENVLNNGRFTVNVTLDPLIFTDSTLGDLEEDMFSHYRDFLHLRGADAFFTAEVVSVKKLVKRDRFGESELHVVKARAGDVMRAESFRMALNRGIYAVIESLIAYTRAEFSDPLVLRERIAEMNRVARKVGGPREKEAMRRIIQALESKIS | not soluble
MSGDDDIPEGLEAINLKMNATTDDSLESTRRMLALCEESKEAGIKTLVMLDDQGEQLERCEGALDTINQDMKEAEDHLKGMEKCCGLCVLPWNKTDDFEKTEFAKAWKKDDDGGVISDQPRITVGDSSMGPQGGYITKITNDAREDEMDENVQQVSTMVGNLRNMAIDMSTEVSNQNRQLDRIHDKAQSNEVRVESANKRAKNLITK | not soluble
MSGDGDSSTTSSAGDGSTSKDKIPAFSEIRVIEVNRDNFAKIWPYLLVCIKSADFTAIDLELSGLGGKGLRSRDIAERYQAIRDAAHTRSILSVGIATMKLTHKSEKRRALRYETQVFNILTFSEKPFTIEPSALQFLAKHSFDFNRLIQSGVRFQGANCPLKTLFRELLGSSATFCLHNGFIDLAFIYKQLYDIDLPDTLDGFVNNLSDMFPDNYLPVADSKYLAEYQTRMTASFLEYVFRRTQGDNEIERQNNRYHIEICFPSSEKSIKALKNATESVDVRLPEGFPDHAIPIDLHIHVCKYFAYHGFCHARNTEKGCKLLHDVDTAIDLQRIKENKKAFKRKRRYNNVIAESVAEKTGTDEEAWKNAKFEQNLLTRDFRELKRNVVTGLHRAGVDAFMTAFAVIYQQRRTLMADNSVDLKFLNRVPLSAKDKPLHLRHRPVPVPQSEQIDAHLEAMVEINKQRDYIRMNAAATVIKSVQKEDTPCED | not soluble
MSGIPSQGVASGMREAARALLAVLEPEQVRELRAGPDRLDTPELREWTYLPGPRPGLSTEGLDGRQREVVDALLTTAHSAAGAELVRGAIEVERHPRARAGHPGPDRYWVRLLGDPGGDEPWGWRLNGHHLAVHVLVTAAGVRVTPHFVGAEPARTGNGPRPGLRPLGPEEDLARELITSLGGTARASALFAATPPDDILTRADPFADPGLLPEGLRYDRLAPGQQRLLERLVGRYLDRAPEAYARECWSDAVRRGLGSLSFAWAGGLAPGDRHYYCVRAPDFLIEYDNTQDDGNHAHSVWRHVRHDWGTDLLRGHYTEQHFLEHHHHHH | not soluble
MSGPAHLPYGGIPTFARAPLVQPDGDWQADVAALGVPFDIALGFRPGARFAPRALREASLRSVPPFTGLDGKTRLQGVTFADAGDVILPSLEPQLAHDRITEAARQVRGRCRVPVFLGGDHSVSYPLLRAFADVPDLHVVQLDAHLDFTDTRNDTKWSNSSPFRRACEALPNLVHITTVGLRGLRFDPEAVAAARARGHTIIPMDDVTADLAGVLAQLPRGQNVYFSVDVDGFDPAVIPGTSSPEPDGLTYAQGMKILAAAAANNTVVGLDLVELAPNLDPTGRSELLMARLVMETLCEVFDHVL | soluble
